Reference: US5908827, “Protein from urine named component B” (Applied Research Systems ARS Holding N.V., dated 1999)

Molecular target: TGF-alpha receptor obtained from A 431 cell membranes (Homo sapiens (Human), UniProt P00533)
Assay: displacement of I^125-TGF-alpha from its receptor on A 431 cell membranes (radioligand competition)

Ki: 0.077 nM
B1: Component B (other)
chain: LKCYTCKEPMTSASCRTITRCKPEDTACMTTLVTVEAEYPFNQSPVVTRSCSSSCVATDPDSIGAAHLIFCCFRDLCNSEL
modifications: SO4 group bound to Tyr (39); five disulfide bridges (urinary material)
